Test results taken from US20130266536A1, “METHOD OF USE OF STABILIZED PLANT-DERIVED GROWTH FACTOR IN SKIN CARE” (priority 2010, published 2013).

Assay: Stability challenge test of plant-made EGF in formulation 1
Type: physicochemical
Details: reconstituted freeze-dried non-glycosylated EGF in formulation 1; +4° C., RT and +37° C.; up to 3 weeks; gel, FIG. 5
Description: Size markers 11 and 17 kDa in the first lane. […] (Ref.http://www.cellsciences.com/PDF/CRE100.pdf)

Question: For “plant-made EGF: purified, reconstituted freeze-dried, non-glycosylated, plant-made EGF in a formulation as in Example 5, formulation 1”, which “stability of the growth factor” value is on record?
Answer: The value was “excellent stability”.
